According to publication doi:10.1101/327320:
Residue numbers refer to the chain shown, from its start.

Legend:
Assay in all cases: EMSA
Hrq1 = target: T1, Hrq1 (Saccharomyces cerevisiae, UniProt Q05549 1-1077)
T1 sequence: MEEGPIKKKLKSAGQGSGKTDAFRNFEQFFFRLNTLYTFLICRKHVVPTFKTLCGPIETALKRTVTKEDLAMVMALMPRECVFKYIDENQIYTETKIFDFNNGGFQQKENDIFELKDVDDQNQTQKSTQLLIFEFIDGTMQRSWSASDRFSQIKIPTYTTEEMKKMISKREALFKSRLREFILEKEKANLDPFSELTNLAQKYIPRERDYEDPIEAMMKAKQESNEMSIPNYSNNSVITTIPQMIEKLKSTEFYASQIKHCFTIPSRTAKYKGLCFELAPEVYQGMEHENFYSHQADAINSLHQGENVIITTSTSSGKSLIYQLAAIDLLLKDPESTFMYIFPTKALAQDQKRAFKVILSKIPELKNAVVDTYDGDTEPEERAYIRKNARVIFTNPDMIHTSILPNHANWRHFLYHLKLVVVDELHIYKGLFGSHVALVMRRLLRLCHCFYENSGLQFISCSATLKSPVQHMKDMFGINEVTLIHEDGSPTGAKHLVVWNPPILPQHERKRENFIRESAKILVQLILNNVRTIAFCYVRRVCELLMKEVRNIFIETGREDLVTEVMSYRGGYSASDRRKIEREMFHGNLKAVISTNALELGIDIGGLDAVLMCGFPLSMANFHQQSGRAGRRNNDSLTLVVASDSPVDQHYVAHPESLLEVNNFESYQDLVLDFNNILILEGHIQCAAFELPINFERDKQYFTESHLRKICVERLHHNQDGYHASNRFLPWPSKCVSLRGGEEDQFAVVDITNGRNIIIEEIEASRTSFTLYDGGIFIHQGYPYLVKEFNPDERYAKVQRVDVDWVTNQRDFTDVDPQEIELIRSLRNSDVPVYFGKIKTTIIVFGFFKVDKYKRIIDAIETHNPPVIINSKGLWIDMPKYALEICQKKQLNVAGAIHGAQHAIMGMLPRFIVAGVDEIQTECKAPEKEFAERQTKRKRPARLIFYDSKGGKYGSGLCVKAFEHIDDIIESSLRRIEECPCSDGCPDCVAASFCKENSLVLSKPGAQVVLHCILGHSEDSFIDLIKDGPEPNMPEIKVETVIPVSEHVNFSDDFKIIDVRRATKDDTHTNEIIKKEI

Pif1 = target: T2, Pif1 (Saccharomyces cerevisiae, UniProt P07271 1-859)
T2 sequence: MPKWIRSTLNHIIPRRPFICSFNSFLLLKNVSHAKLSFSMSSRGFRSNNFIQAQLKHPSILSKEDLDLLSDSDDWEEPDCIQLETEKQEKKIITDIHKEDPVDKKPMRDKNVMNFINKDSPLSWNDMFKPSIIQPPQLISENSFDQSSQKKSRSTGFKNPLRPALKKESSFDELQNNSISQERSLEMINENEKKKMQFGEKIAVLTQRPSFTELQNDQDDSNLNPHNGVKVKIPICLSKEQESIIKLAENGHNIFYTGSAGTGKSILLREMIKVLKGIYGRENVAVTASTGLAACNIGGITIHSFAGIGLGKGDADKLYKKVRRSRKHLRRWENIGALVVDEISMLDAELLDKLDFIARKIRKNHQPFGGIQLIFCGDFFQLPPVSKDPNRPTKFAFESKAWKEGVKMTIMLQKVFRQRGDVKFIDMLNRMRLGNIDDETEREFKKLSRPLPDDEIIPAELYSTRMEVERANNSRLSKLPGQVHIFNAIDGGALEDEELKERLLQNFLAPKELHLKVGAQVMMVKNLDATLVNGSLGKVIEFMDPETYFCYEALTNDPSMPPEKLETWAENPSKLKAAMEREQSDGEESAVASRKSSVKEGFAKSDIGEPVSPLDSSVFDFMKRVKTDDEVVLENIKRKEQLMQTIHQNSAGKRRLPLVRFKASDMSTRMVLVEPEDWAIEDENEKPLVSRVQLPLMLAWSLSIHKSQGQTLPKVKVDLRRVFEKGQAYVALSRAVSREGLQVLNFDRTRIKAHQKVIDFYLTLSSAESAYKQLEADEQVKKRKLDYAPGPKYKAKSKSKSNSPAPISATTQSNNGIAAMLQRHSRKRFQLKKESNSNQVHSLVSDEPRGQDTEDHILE

Pif1-K264A = target: T3, Pif1-K264A (Saccharomyces cerevisiae, UniProt P07271 1-859, K264A)
T3 sequence: T2 sequence with K264A

Hrq1-K318A = target: T4, Hrq1-K318A (Saccharomyces cerevisiae, UniProt Q05549 1-1077, K318A)
T4 sequence: T1 sequence with K318A

Hrq1;Pif1 = Hrq1;Pif1 (Saccharomyces cerevisiae;Saccharomyces …, UniProt Q05549;P07271 1-1077;1-859, |)

Question: How did the Kd (Hrq1) turn out when TTTTTTTTTTTTTTTTTTTTTTTTT (ssDNA, 3'-terminal T25 is inverted dT (3'-3' linkage, two 5' ends, no free 3' end)) [MB1429 poly(dT) 25 nt with 3' inverted dT] was run?
Answer: ~35 nM

Question: What does the source list for CGCCATGCTGATCCGTGTGGTGTGTGTGGG (ssDNA) [Tel30]?
Answer: Kd (Pif1): 33.5 nM; Kd (Pif1-K264A): 41.2 nM; Kd (Hrq1-K318A): 105 nM; Kd (Hrq1): 16.1 nM

Question: Does TGTGGTGTGTGTGGG (ssDNA) [Tel15] bind (Pif1)?
Answer: binds

Question: Does TGTGGTGTGTGTGGG (ssDNA) [Tel15] bind (Pif1-K264A)?
Answer: binds

Question: For TTTTTTTTTTTTTTTTTTTTTTTTT (ssDNA) [MB463 poly(dT) 25 nt], which Kd (Hrq1) is on record?
Answer: ~35 nM

Question: Does GTGTGGGTGTGGTGTGGGTGTGGTGTGGGTGTGTGGTGTGGTGTGTGTGG (ssDNA) [Tel50] bind (Hrq1;Pif1)?
Answer: binds
